For the data set, the system named is MS2 coat protein. Briefly: apparent KD of MS2 coat protein; higher = weaker reporter binding. Conditions: Eterna round: R107. The essentials:
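Illumina sequencing clusters served as templates for on-chip transcription of the designed RNA switches. SNAP-549-labelled MS2 coat protein was then titrated in twofold steps from 0.7 or 1.5 nM to 3 µM, allowing 0.8–1.5 h per step at first and 10–20 min per step later. The buffer held 100 mM Tris-HCl pH 7.5, 80 mM KCl and 4 mM MgCl2, without or with constant ligand. Apparent KD is the median per design of normalised cluster binding-curve fits.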

[1] abbreviates: input ligand: theophylline 20 uM.
The mark [2] stands for this setting: input ligand: tryptophan 2.4 mM.
Where [3] appears, read: input ligand: theophylline 2 mM.

For “CUCGGAACAAUCGAUACCAGUUCUCAUGGAUUGCAGCAGUACAUGAGGAUCACCCAUGUAAACCCUUGGCAGCGAAGAACAAGAC [theeternabot_exclusion_MS2_Theo_B_18]”, the “apparent KD of MS2 coat protein” value (input ligand: arginine 13.2 mM) stood at 26 nM, the “apparent KD of MS2 coat protein” value under setting [1] came out at 48.2 nM and the “apparent KD of MS2 coat protein” value under setting [2] was determined as 33.4 nM.
Turning to “CUCUCAUGAACAUGAGGAUCACCCAUGUAACGAGGACCGGUACGGCCGCCACUCGAACGUGGAAACCAAUCGAGUGAGGUGGGAG [Tryp A Ex t5b]”, the “apparent KD of MS2 coat protein” value (input ligand: arginine 13.2 mM) worked out at 45.9 nM; the “apparent KD of MS2 coat protein” value (input ligand: none) is 116 nM; the “apparent KD of MS2 coat protein” value under setting [1] turned out to be 98.4 nM; the “apparent KD of MS2 coat protein” value under setting [3] came out at 119 nM; the “apparent KD of MS2 coat protein” value under setting [2] was determined as 352 nM.
On to “CUUACACAUGAGGAUCACCCAUGUCAUGAUACCAGCCAAUACACUGGCCCUUGGCAGCAUCUCAGCCUCAGCUACAUUGACUGAC [theeternabot_sameState_MS2_Theo_A_2]”, for which the “apparent KD of MS2 coat protein” value (input ligand: arginine 13.2 mM) was 18.9 nM, the “apparent KD of MS2 coat protein” value under setting [1] came out at 28.2 nM and the “apparent KD of MS2 coat protein” value under setting [2] is 17.8 nM.
Take “GAAACGUAGGUGGAGCGGUGAAAUGGCGAUACCAGCGUGGAAACACGCCCUUGGCAGCGUUAGAACAUGAGGAUCACCCAUGUUU [#21 Exclusion-TheophyllineA]”: the “apparent KD of MS2 coat protein” value reads like this: (input ligand: arginine 13.2 mM) 19.3 nM; under setting [1], 62.4 nM; under setting [2], 26.4 nM.
Take “GAAUUUAUAUGAAGGAGCGUCGAAAAUGGGUAAACAUGAGGAUCACCCAUGUAAAGGGAACGACAGGUAGGUCGCAUAUGGAUUC [AstromonsSSArgB#26]”: the “apparent KD of MS2 coat protein” value is, setting by setting: (input ligand: arginine 13.2 mM) 114 nM; (input ligand: none) 175 nM; under setting [1], 196 nM; under setting [3], 219 nM; under setting [2], 197 nM.
On the same counts, the results for “GACAUGAGGAUCGAUACCAGCGACAUGAGGAUCACAUGAGGAUCACCCAUGUGUAGUAUACGCCCUUGGCAGCGAACAUGAGGAU [Same State Theophylline B 3]” are 74.3 nM, 51.4 nM, 71.2 nM, 39.2 nM and 32.3 nM.
Turning to “GACAUUAUCUGAAGGAGCGAGGUAAAUAGGGAUGAGCAUACAUGAGGAUCACCCAUGUGGCCUCAGGUAGGUCGCAGAUGAGAUU [Exclusion Arginine B GF26]”, the “apparent KD of MS2 coat protein” value was 41.1 nM (input ligand: arginine 13.2 mM); 253 nM (input ligand: none); 212 nM under setting [1]; 453 nM under setting [3]; 256 nM under setting [2].
For “GACCGAUUAUAGUGCGAUUCUCUUGUGGAAGGAGCGCAGAGGACUGCAGGUAGGUCGCCACAUGAGGAUCACCCAUGUCAGGAUA [Esxebiat]”, the “apparent KD of MS2 coat protein” value (input ligand: arginine 13.2 mM) came out at 65.6 nM; the “apparent KD of MS2 coat protein” value (input ligand: none) turned out to be 183 nM; the “apparent KD of MS2 coat protein” value under setting [1] was 89.6 nM; the “apparent KD of MS2 coat protein” value under setting [3] is 708 nM; the “apparent KD of MS2 coat protein” value under setting [2] was determined as 10.6 nM.
For the sequence “GACGGGCCUAUUGAUACCAGACCUAGUGACAACAUGAGGAUCACCCAUGUGACGGCAAAAGUCCCUUGGCAGCAAGUAGAAAUAA [theeternabot_sameState_MS2_Theo_B_41]”, the “apparent KD of MS2 coat protein” value is 14 nM (input ligand: arginine 13.2 mM), 16.6 nM under setting [1] and 15.4 nM under setting [2].
On to “GAGGGUGAAUCUCUAGUCCGUUUGACGGAUACCAGCGAGAGGUAUCGCCCUUGGCAGCCGACGACAUGAGGAUCACCCAUGUUAA [#07 Exclusion-TheophyllineA]”, for which the “apparent KD of MS2 coat protein” value by setting is: (input ligand: arginine 13.2 mM) 22.2 nM; (input ligand: none) 40.6 nM; under setting [1], 42.6 nM; under setting [3], 22 nM; under setting [2], 29.3 nM.
Take “GAGGGUGGGUCUCUAAUCCGUUUGACGGAUACCAGCGAGAGAUAUCGCCCUUGGCAGCCGACGACAUGAGGAUCACCCAUGUAAA [#06 Exclusion-TheophyllineA]”: the “apparent KD of MS2 coat protein” value (input ligand: arginine 13.2 mM) amounted to 17.1 nM, the “apparent KD of MS2 coat protein” value under setting [1] worked out at 19.6 nM and the “apparent KD of MS2 coat protein” value under setting [2] amounted to 16.9 nM.
Turning to “GAGGUCCUGAGAGAUACCAGUGAGGCCACAUGAGGAUCACCCAUGUCCCUCACUCCGGCCCACCCUUGGCAGCUCGGAAGGUAAA [Exclusion Theophylline B GF 23]”, the “apparent KD of MS2 coat protein” value (input ligand: arginine 13.2 mM) stood at 14.9 nM, the “apparent KD of MS2 coat protein” value under setting [1] was 29.7 nM and the “apparent KD of MS2 coat protein” value under setting [2] turned out to be 17.5 nM.
As for “GAUAUGGAAACAUGUCAGAUCCUUACCGGUCGAGGACCGGUACGGCCGCCACUCGAAAACGAGGAACAUGAGGAUCACCCAUGUA [Ex Tryptophan A 20]”, the “apparent KD of MS2 coat protein” value runs as follows: (input ligand: arginine 13.2 mM) 32.7 nM; under setting [1], 50.4 nM; under setting [3], 49.5 nM.
Regarding “GAUAUGGAAACAUGUCAGAUCCUUACCGGUCGAGGACCGGUACGGCCGCCACUCGAAAACGAUGUACAUGAGGAUCACCCAUGUA [Ex Tryptophan A 19]”, the “apparent KD of MS2 coat protein” value turned out to be 13.7 nM (input ligand: arginine 13.2 mM); 14 nM (input ligand: none); 16.2 nM under setting [1]; 14.7 nM under setting [3]; 21.6 nM under setting [2].

These data come from the supplement of paper PMC9170038.
